Experimental data published in publication PMC10143966, “The Replicative DnaE Polymerase of Bacillus subtilis Recruits the Glycolytic Pyruvate Kinase (PykA) When Bound to Primed DNA Templates” (Life, 2023).
Where two headings read alike, the source gives them in different places. Blank lines part the entries; values can stand above or below the molecule they belong to.

Tests used:
[1] = target: T1, B. subtilis DnaE polymerase (B. subtilis, UniProt O34623 1-1115); assay: SPR; 5'-biotinylated primed DNA probe (30 mer annealed to 110 mer) immobilised on a streptavidin SA chip (about 100 RU); DnaE (35 nM) added with increasing concentrations of PykA (0-1000 nM), CAT or PEPut; Biacore T200, 200 uL/min, 25 °C, 25 mM NaCl, 25 mM MgCl2, 150 mM Tris-HCl pH 7.5, 1 mM DTT; maximum RU values fitted to a one site-specific binding curve
T1 construct: DnaE DNA polymerase, Bacillus subtilis; also called replicative DnaE polymerase; lagging strand DNA polymerase
T1 sequence (looked up): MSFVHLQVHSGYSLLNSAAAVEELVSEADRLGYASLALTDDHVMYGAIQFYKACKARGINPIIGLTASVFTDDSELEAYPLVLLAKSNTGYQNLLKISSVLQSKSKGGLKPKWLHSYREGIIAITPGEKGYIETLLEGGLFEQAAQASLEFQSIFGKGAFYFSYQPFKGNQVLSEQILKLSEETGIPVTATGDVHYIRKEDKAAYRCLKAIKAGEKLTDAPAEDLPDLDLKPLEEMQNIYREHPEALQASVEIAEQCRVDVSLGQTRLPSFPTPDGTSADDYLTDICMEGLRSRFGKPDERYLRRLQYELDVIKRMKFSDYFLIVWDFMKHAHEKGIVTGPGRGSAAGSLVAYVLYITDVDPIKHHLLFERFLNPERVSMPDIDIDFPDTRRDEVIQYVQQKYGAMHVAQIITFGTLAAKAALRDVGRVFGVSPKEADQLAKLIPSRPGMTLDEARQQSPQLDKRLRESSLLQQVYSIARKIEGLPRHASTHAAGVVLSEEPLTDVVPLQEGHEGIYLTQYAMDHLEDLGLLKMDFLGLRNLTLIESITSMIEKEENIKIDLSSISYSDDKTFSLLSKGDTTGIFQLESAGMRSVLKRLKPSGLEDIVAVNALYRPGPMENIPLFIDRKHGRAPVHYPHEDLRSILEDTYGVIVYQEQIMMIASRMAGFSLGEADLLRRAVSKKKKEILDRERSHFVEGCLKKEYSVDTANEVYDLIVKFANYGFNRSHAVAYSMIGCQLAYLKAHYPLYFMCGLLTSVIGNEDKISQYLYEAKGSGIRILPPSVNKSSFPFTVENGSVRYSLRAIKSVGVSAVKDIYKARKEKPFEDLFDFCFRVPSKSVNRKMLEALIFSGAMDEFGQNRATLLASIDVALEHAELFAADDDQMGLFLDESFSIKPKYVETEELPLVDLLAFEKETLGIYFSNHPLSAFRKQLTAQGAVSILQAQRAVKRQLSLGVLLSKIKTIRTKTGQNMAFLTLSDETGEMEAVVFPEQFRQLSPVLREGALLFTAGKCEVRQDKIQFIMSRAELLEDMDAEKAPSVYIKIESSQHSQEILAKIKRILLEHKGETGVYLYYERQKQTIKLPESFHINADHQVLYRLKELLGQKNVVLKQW

[2] = target: DnaE polymerase;PykA CAT domain (Bacillus subtilis;Bacillus subtilis, UniProt O34623;P80885 1-1115;2-473, |); assay: SPR; CAT titrated onto DnaE (35 nM) on DNA; Kd is for CAT to DnaE-DNA complex; 25 mM MgCl2; SPR (Biacore T200, SA chip): 25 mM NaCl, 25 mM MgCl2, 150 mM Tris-HCl pH 7.5, 1 mM DTT, 25 °C; details: protein: recombinant;recombinant; tags: ;His-MBP removed by TEV; label: 5' biotin on 110 mer (strand 1); 30 mer primer annealed to 110 mer template, ssDNA on both sides; 5' A of the primer may be near/at the CCCCCT junction
[3] = target: DnaE polymerase;PykA pyruvate kinase (Bacillus subtilis;Bacillus subtilis, UniProt O34623;P80885 1-1115;1-585, |); assay: SPR; PykA titrated (0-1000 nM) onto DnaE (35 nM) on DNA; Kd is for PykA to DnaE-DNA complex; 25 mM MgCl2; SPR (Biacore T200, SA chip): 25 mM NaCl, 25 mM MgCl2, 150 mM Tris-HCl pH 7.5, 1 mM DTT, 25 °C; details: protein: recombinant;recombinant; tags: ;His-MBP removed by TEV; copies: 1;4; label: 5' biotin on 110 mer (strand 1); 30 mer primer annealed to 110 mer template, ssDNA on both sides; 5' A of the primer may be near/at the CCCCCT junction
PykA pyruvate kinase = target: T2, PykA pyruvate kinase (Bacillus subtilis, UniProt P80885 1-585); assay: SPR; no DnaE; 25 mM MgCl2; SPR (Biacore T200, SA chip): 25 mM NaCl, 25 mM MgCl2, 150 mM Tris-HCl pH 7.5, 1 mM DTT, 25 °C; details: protein: recombinant; tags: His-MBP removed by TEV; chain copies: 4; label: 5' biotin on 110 mer (strand 1); 30 mer primer annealed to 110 mer template, ssDNA on both sides; 5' A of the primer may be near/at the CCCCCT junction
T2 sequence: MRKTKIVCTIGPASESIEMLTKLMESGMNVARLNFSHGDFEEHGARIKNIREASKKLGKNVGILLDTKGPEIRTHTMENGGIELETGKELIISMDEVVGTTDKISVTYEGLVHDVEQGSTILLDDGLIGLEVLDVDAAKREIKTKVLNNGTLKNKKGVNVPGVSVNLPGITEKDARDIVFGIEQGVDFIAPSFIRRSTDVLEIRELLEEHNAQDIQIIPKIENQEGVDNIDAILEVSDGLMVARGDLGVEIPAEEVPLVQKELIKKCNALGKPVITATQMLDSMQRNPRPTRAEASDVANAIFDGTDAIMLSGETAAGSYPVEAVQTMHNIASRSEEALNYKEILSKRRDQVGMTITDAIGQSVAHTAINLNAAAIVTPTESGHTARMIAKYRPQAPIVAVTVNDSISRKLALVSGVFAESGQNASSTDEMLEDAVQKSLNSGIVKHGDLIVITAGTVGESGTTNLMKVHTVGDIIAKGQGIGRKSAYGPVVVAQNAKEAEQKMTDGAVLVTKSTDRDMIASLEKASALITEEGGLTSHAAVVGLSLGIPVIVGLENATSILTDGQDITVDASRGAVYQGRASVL

PykA CAT domain = target: T3, PykA CAT domain (Bacillus subtilis, UniProt P80885 2-473); assay: as above; details: protein: recombinant; tags: His-MBP removed by TEV; label: 5' biotin on 110 mer (strand 1); 30 mer primer annealed to 110 mer template, ssDNA on both sides; 5' A of the primer may be near/at the CCCCCT junction
T3 sequence: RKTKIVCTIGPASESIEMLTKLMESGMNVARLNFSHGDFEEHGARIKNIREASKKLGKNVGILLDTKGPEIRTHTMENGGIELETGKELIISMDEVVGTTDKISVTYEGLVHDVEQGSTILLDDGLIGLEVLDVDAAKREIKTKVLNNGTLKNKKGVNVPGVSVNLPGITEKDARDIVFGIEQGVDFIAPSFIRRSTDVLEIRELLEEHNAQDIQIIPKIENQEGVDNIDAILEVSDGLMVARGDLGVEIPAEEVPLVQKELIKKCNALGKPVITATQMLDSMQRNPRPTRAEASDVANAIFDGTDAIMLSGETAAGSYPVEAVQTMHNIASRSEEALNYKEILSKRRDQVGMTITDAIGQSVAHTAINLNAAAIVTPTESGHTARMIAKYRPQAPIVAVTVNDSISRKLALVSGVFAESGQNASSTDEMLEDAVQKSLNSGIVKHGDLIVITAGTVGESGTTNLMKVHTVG

PykA PEPut domain = target: T4, PykA PEPut domain (Bacillus subtilis, UniProt P80885 494-585); assay: as above; details: protein: recombinant; tags: His-MBP removed by TEV; label: 5' biotin on 110 mer (strand 1); 30 mer primer annealed to 110 mer template, ssDNA on both sides; 5' A of the primer may be near/at the CCCCCT junction
T4 sequence: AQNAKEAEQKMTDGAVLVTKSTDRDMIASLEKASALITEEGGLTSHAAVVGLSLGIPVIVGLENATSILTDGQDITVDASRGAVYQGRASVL

DnaE polymerase = DnaE polymerase (Bacillus subtilis, UniProt O34623 1-1115); assay: SPR; 25 mM MgCl2; DnaE 0-700 nM; SPR (Biacore T200, SA chip): 25 mM NaCl, 25 mM MgCl2, 150 mM Tris-HCl pH 7.5, 1 mM DTT, 25 °C; details: protein: recombinant; label: 5' biotin on 110 mer (strand 1); 30 mer primer annealed to 110 mer template, ssDNA on both sides; 5' A of the primer may be near/at the CCCCCT junction

Kd [1]: 7.33 nM
Molecule: CAT domain of B. subtilis PykA (domain or fragment)

Kd ([1]; both partners purified): 14.6 nM
B1: B. subtilis pyruvate kinase PykA, full-length, wild type (enzyme, UniProt P80885 1-585, looked up)
chain: T2 sequence
notes: PykA pyruvate kinase, Bacillus subtilis; 1755 bp pykA fragment amplified from genomic DNA, cloned into p2CT; the same vector gives an N-terminal tag for PEPut; Tetramer: legends give 16 nM monomers as 4 nM tetramers; also called full-length PykA; wild-type PykA; source: E. coli Rosetta (DE3), purified (HisTrap IMAC, TEV cleavage, reverse IMAC, Superdex 200 gel filtration)

B2: primed probe, 30 mer on 5'-biotinylated 110 mer (mixed)
DNA 1: CACACACACACACACACACACACACACACACACACACACACACACACACACACACACACCCCCTTTAAAAAAAAAAAAAAAAGCCAAAAGCAGTGCCAAGCTTGCATGCC
DNA 2: AGGGGGTGTGTGTGTGTGTGTGTGTGTGTG
Kd [2]: 7.33 nM
Kd [3]: 14.6 nM
binding result (PykA pyruvate kinase): no binding
binding result (PykA CAT domain): no binding
binding result (PykA PEPut domain): no binding
Kd (DnaE polymerase): 146 nM
